# Data from patent publication US20250382334.
# B1: Moloney murine leukemia virus (MMLV) protease, supplied as wild-type MMLV gag-pro-pol polyprotein (protein)
# chain: TLDDQGGQGQEPPPEPRITLKVGGQPVTFLVDTGAQHSVLTQNPGPLSDKSAWVQGATGGKRYRWTTDRKVHLATGKVTHSFLHVPDCPYPLLGRDLLTKLKAQIHFEGSGAQVMGPMGQPLQVL
# Legend:
# [1] = molecular target: v2.1 BE-VLP MMLV gag-ABE8e fusion protein (cleavable linker …)
# [2] = molecular target: v2.2 BE-VLP MMLV gag-ABE8e fusion protein (cleavable linker VQALVLTQ)
# [3] = molecular target: v2.3 BE-VLP MMLV gag-ABE8e fusion protein (cleavable linker […])
# [4] = molecular target: v2.4 BE-VLP MMLV gag-ABE8e fusion protein (cleavable linker […])
protein,measurement,setting,value
B1,fraction of cleaved ABE8e versus full-length gag-ABE8e present in purified eVLPs (western blot),[1],"the v2.4 linker is cleaved more efficiently than the v2.1 and v2.2 linkers, but less efficiently than the v2.3 linker"
same,fraction of cleaved ABE8e versus full-length gag-ABE8e present in purified eVLPs (western blot),[2],"the v2.4 linker is cleaved more efficiently than the v2.1 and v2.2 linkers, but less efficiently than the v2.3 linker"
same,fraction of cleaved ABE8e versus full-length gag-ABE8e present in purified eVLPs (western blot),[3],"the v2.4 linker is cleaved more efficiently than the v2.1 and v2.2 linkers, but less efficiently than the v2.3 linker"
same,fraction of cleaved ABE8e versus full-length gag-ABE8e present in purified eVLPs (western blot),[4],"the v2.4 linker is cleaved more efficiently than the v2.1 and v2.2 linkers, but less efficiently than the v2.3 linker"
